In the test the target is Rluc-tagged smAKAP, a peptide derived from an RI-specific AKAP. The experiment in a line: Renilla luciferase (Rluc) protein-fragment complementation assay (PCA). Conditions: bar labelled L50R:smAKAP; parent: est. 13; read off a plot.

The results in this text go back to PMC11531844.

For “Rluc-tagged RIβ WT (Renilla luciferase protein-fragment complementation hybrid protein) (from UniProt P31321) L50R”, the response is 1.5 RLU 10^4.
